Experimental data published in patent CN109232738A (GENSCRIPT NANJING CO LTD, dated 2019).

T1: 人OX40 expressed on cells (表达OX40的CHO细胞; OX40过表达的功能细胞系) (human, UniProt P43489 29-277)
T1 construct: whole, on cells; also called CD134; TNFRSF4
T1 sequence (looked up): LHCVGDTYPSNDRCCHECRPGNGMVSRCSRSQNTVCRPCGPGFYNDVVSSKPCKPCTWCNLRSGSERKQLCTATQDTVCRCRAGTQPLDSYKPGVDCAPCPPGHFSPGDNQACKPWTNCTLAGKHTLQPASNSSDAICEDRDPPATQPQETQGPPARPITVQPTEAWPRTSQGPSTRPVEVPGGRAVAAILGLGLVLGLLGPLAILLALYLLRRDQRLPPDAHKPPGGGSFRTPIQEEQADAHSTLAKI

B1: 83C2H3B6 (antibody, V domains shown)
VH: QVQLKQSGPGLVQPSQSLSITCTVSGFSLTSYGVHWVRQSPGKGLEWLGVIWSGGSTDYNAAYISRLSISKDNSKSQVFFKMNSLQADDTATYYCANYDYDVPYWGQGTLVTVSA
VL: DIQMTQSPASQSASLGESVTITCLASQTIGTWLAWYQQKPGKSPQLLIYAATSLADGVPSRFSGSGSGTKFSFKISSLQAEDFVSYYCQQLYSTPFTFGSGTKLEIK
B2: 51E2G12D6 (antibody, V domains shown)
VH: QVTLKESGPGILQPSQTLSLTCSFSGFSLDTSGMGVTWIRQPSGKGLEWLAHIYWDDDKHYNPSLKSRLTISKDTSSTQVLLKITSVVTADTATYYCARRALGAMDYWGQGTSVTVSS
VL: DIQMTQTTSSLSASLGDRVTISCRASQDISHYLNWYQQKPDGTVKLLIYYTSTLHSGVPSRFSGSGSGTDYSLTISNLEQEDIATYFCQQGKTLPPTFGAGTELELK
B3: 68G8C4B12 (antibody, V domains shown)
VH: QVQLKESGPGLVAPSQSLSITCTVSGFSLTNYGVHWVRQPPGKGLEWLGVIWDDGNTNYNSALMSRLSINKDNSKSQVFVTMNSLQIDDTAMYYCALFDGYYGWFAYWGQGTLVTVSS
VL: DIQMTQTTSSLSASLGDRVTISCRASQDISFYLNWYQQKPDGTVKLLIYYTSRLHSGVPSRFSGSGSGTDYSLTISNLEQEDFATYFCQQGHTLPWTFGGGSKLEIK
B4: 99A2A8D4E8 (antibody, V domains shown)
VH: QIQLVQSGPELKKPGETVKISCKASGYTFTDYSMHWVKQAPGKGLKWMGWISTETGEPTYADDFKGRFAFSLETSASTAYLQIKNLKNEDTASYFCARVRPWYLAVWGAGTTVTVSS
VL: DIQMTQTTSSLSASLGDRVTISCRASQDISNYLNWYQQKPDGTVKLLIYYTSRLYSGVPSRFSGSGSGADYSLTVSNLEQEDIATYFCQQANTLPLTFGAGTKLELK
B5: 17B12G2C3 (antibody, V domains shown)
VH: EVQLQQSGPELVKPGASVKISCKASGYTFTDYYMNWVKQSHGKSLEWIGDINPNNGGTNYNQKFKGKATLTVDKSSSTTYMELRSLTSEDSAVYYCARSGGWLLQDYWGQGTTLTVSS
VL: DIQMTQTTSSLSASLGDRVTITCRASLDISNYLNWYQQKPDGTVKFLIYYTSRLHSGVPSRFSGSGSGTDYSLTISNLEQEDIATYFCQQGNTLPYTFGGGTKLEIK
B6: OX40L (ligand, UniProt P23510 51-183, looked up)
chain: QVSHRYPRIQSIKVQFTEYKKEKGFILTSQKEDEIMKVQNNSVIINCDGFYLISLKGYFSQEVNISLHYQKDEEPLFQLKKVRSVNSLMVASLTYKDKVYLNVTTDNTSLDDFHVNGGELILIHQNPGEFCVL
B7: 9G4C8B11 (antibody, V domains shown)
VH: DVQLQESGPGLVKPSQSLSLTCSVTGYSITSGYYWNWIRQFPGNKLEWMGYISYDGSNNYNPSLKNRISITRDTSKNQFFLKLNSVTTEDTATYYCARDRAYYSNYVGWYFDVWGTGTTVTVSS
VL: DIVLTQSPASLAVSLGQRATISCRASESVDNYGNSFMHWYQQTPGQPPKLLIYRASNLESGIPAKFSGSGSRTDFTLTINPVEADDVATYYCQQSNEDPLTFGAGTKLELK

Columns and labels:
[1] = target: T1, 人OX40 expressed on cells (表达OX40的CHO细胞; …); experiment: flow cytometry on OX40-expressing CHO cells, 5 μg/ml antibody
[2] = target: T1, 人OX40 expressed on cells (表达OX40的CHO细胞; …); experiment: cell-based or functional assay

Binder | 结合信号值 relative to control sample (fold) [1] [fold] | inhibition of IL-8 secretion by OX40 over-expressing functional cell line, IC50 [2] [nM] | inhibition of IL-8 secretion by OX40 over-expressing functional cell line, given as EC50 [2] [nM] | IL-8 secretion by OX40 over-expressing functional cell line (activation), EC50 [2] [nM]
B1 | 200 | 68 | – | –
B2 | 200 | 1.45 | – | –
B3 | 200 | – | 2.36 | –
B4 | 200 | – | – | 0.58
B5 | 200 | 8.23 | – | –
B6 | – | – | – | 2.18
B7 | 200 | – | – | 6.5
